From patent publication US20230416942A1 (YALE UNIVERSITY, published 2023)
Blank lines part the entries; values can stand above or below the binder they belong to.

Tests used:
[1] = target: T1, IL10RA (human, UniProt Q13651 22-235); assay: ELISA, plate-coated recombinant human protein, nanobody-Fc
T1 construct: Recombinant human protein in ELISA
T1 sequence (looked up): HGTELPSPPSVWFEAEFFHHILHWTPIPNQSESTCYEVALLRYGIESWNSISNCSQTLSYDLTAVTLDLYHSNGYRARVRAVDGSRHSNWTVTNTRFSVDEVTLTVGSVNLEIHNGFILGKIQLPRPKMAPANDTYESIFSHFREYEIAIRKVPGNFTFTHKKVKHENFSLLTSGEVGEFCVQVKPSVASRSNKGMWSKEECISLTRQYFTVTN
Procedure: (§1) Recombinant human protein was diluted in PBS to a final concentration of 5 μg/mL and was immobilized on 96-well flat bottom MaxiSorp plates (Thermo Fisher Scientific) and placed at 4° C. overnight. Plates were washed three times with 225 μL ELISA wash buffer (PBS with 0.05% Tween 20) and 200 μL ELISA blocking buffer (PBS with 1% Casein) was added to the well. Plates were incubated with shaking for 2 hours at room temperature. ELISA blocking buffer was removed from the wells and appropriate dilutions of recombinant nanobodies in 100 μL ELISA blocking buffer was added to each well. Plates were incubated with shaking for 2 hours at room temperature. Plates were washed 3 times with 225 μL ELISA wash buffer and 1:5000 goat anti-human IgG HRP (Millipore Sigma) in 100 μL ELISA blocking buffer was added to the wells. Plates were incubated with shaking for 1 hour at room temperature. Plates were washed 6 times with 225 μL ELISA wash buffer. 50 μL TMB substrate (BD Biosciences) was added to the wells and plates were incubated for 15 minutes in the dark at room temperature. 50 μL 1 M sulfuric acid was added to the wells and absorbance at 450 nm was measured in a Synergy HTX Multi-Mode Microplate Reader (BioTek).

[2] = target: T2, PROCR (human, UniProt Q9UNN8 18-210); assay: as above
T2 construct: Recombinant human protein in ELISA and BLI
T2 sequence (looked up): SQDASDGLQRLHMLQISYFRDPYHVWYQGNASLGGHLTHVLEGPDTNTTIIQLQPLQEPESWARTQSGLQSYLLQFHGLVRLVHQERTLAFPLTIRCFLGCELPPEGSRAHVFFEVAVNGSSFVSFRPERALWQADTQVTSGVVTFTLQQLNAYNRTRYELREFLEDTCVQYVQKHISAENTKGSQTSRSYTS
Procedure: as §1

[3] = target: T2, PROCR; assay: BLI, AHC sensor, nanobody-Fc captured, antigen in solution
Text: (§2) Octet RED96 System (ForteBio) was used to perform kinetic measurement of nanobody binding to antigens. For Anti-Penta-His Biosensors (HIS1K), his-tagged recombinant human proteins were first immobilized onto the biosensors, and recombinant nanobodies fused with human IgG1 were applied to detect binding. For Anti-Human IgG Fc Capture Biosensors (AHC), recombinant nanobodies fused with human IgG1 were first loaded onto the biosensors, and probes were dipped in serial dilutions of recombinant human antigens.

[4] = target: T3, CCL16 (human, UniProt O15467 24-120); assay: ELISA, plate-coated recombinant human protein, nanobody-Fc
T3 construct: Recombinant human protein in ELISA and BLI
T3 sequence (looked up): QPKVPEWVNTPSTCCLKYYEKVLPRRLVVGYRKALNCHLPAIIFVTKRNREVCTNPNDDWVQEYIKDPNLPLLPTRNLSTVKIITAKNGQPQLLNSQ
Procedure: as §1

[5] = target: T3, CCL16; assay: BLI, AHC sensor, nanobody-Fc captured, antigen in solution
Text: as §2

[6] = target: T4, IL1RN (human, UniProt P18510 26-177); assay: ELISA, plate-coated recombinant human protein, nanobody-Fc
T4 construct: Recombinant human protein in ELISA and BLI
Procedure: as §1

[7] = target: T4, IL1RN; assay: BLI, AHC sensor, nanobody-Fc captured, antigen in solution
Text: as §2

[8] = target: T5, LAIR2 (human, UniProt Q6ISS4 22-152); assay: ELISA, plate-coated recombinant human protein, nanobody-Fc
T5 construct: Recombinant human protein in ELISA
T5 sequence (looked up): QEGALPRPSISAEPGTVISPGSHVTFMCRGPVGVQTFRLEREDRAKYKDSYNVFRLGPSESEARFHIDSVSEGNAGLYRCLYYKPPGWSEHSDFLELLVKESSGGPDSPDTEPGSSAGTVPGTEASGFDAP
Procedure: as §1

T4 sequence (P18510 26-177 limits assumed): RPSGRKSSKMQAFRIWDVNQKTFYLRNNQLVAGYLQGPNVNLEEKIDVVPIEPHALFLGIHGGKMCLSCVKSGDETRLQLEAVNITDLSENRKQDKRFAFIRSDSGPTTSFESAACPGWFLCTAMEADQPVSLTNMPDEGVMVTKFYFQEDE

B1: IL10RA_Nb72 (Fc fusion)
chain: QVQLQESGGGLVQAGGSLRLSCAASGTISSEHAMGWYRQAPGKERELVAGITYGSITNYADSVKGRFTISRDNAKNTVYLQMNSLKPEDTAVYYCAVYYYYRATIYHALGYWGQGTQVTVSS
notes: Nanobody expressed and tested as Fc fusion (human IgG1); not shown: human IgG1 Fc (vector pCER243)
- EC50 [1]: 16.9 nM

B4: CCL16_Nb2.1 (Fc fusion)
chain: QVQLQESGGGLVQAGGSLRLSCAASGYISSYWDMGWYRQAPGKERELVAAIAPGTITYYADSVKGRFTISRDNAKNTVYLQMNSLKPEDTAVYYCAASEFDNEAHDYWGQGTQVTVSS
notes: as for B1
- EC50 [4]: 0.882 nM
- Kd [5]: 17.4 nM

B5: IL1RN_Nb77 (Fc fusion)
chain: QVQLQESGGGLVQAGGSLRLSCAASGTIFTWLVMGWYRQAPGKERELVASIDPGTNTYYADSVKGRFTISRDNAKNTVYLQMNSLKPEDTAVYYCAARYVAGYTVGAYHYYWGQGTQVTVSS
notes: as for B1
- EC50 [6]: 0.168 nM
- Kd [7]: 852 nM

B6: LAIR2_Nb2.51 (Fc fusion)
chain: QVQLQESGGGLVQAGGSLRLSCAASGSIFYPSAMGWYRQAPGKERELVASIGQGGSTYYADSVKGRFTISRDNAKNTVYLQMNSLKPEDTAVYYCAVQPYSANLHRYWGQGTQVTVSS
notes: as for B1
- EC50 [8]: 0.379 nM

The next lines start with the values.

- EC50 [2]: 0.287 nM
- Kd [3]: 62.9 nM
B2: PROCR_Nb88 (Fc fusion)
chain: QVQLQESGGGLVQAGGSLRLSCAASGTIFKLGYMGWYRQAPGKEREFVATITTGATTYYADSVKGRFTISRDNAKNTVYLQMNSLKPEDTAVYYCAADTYGPWAYSYWGQGTQVTVSS
notes: as for B1

- EC50 [2]: 0.0104 nM
- Kd [3]: 92.1 nM
B3: PROCR_Nb87 (Fc fusion)
chain: QVQLQESGGGLVQAGGSLRLSCAASGSISSYPYMGWYRQAPGKERELVASIASGTNTYYADSVKGRFTISRDNAKNTVYLQMNSLKPEDTAVYYCAADSTGPWSHVYWGQGTQVTVSS
notes: as for B1
